In the RNAGym collection of RNA variant scans (doi:10.1073/pnas.2313332121):
Fewer inactive variants are shown than the library holds.

B1: TPR 5TU (parent)
chain: GGAUCUUCUCGAUCUAACAAAAAAGACAAAUCUGCCACAAAGCUUGAGAGCAUCUUCGGAUGCAGAGGCGGCAGCCUUCGGUGGCGCGAUAGCGCCAACGUUCUCAACUAUGACACGCAAAACGCGUGCUCCGUUGAAUGGAGUUUAUCAUG

Variants of: B1
Test: polymerase ribozyme fitness, log enrichment relative to wild type (log ratio); higher = more active; in vitro selection for triplet polymerase activity
Procedure, shortened: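 For each subunit of a heterodimeric triplet polymerase ribozyme, a mutant library was built by PCR and transcribed, then taken through a single in vitro selection round in triplicate. Selection involved annealing to a biotinylated primer, the partner subunit and triplets, incubation frozen at −7 °C, gel excision of extended constructs, capture on streptavidin beads and RT-PCR. Genotypes were retained after Illumina sequencing of inputs and outputs only with ≥10 input reads and ≥1 read in each output. Fitness is defined as the logarithm of a genotype's enrichment relative to wild-type enrichment, using inverse-variance-weighted averages across replicates, with the logarithm taken to base 2.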

Variant	polymerase ribozyme fitness (log ratio)
GGAUCUUCUGGAUCUAACAAAAAAGACAAAUCUGCCACAAAGCUUGAGAGCAUCUUCGGAUGCAGAGGCGGCAGCCCUCGGUGGCGCGAAAGCGCCAACGUUCUCAACUAUGACACGCGAAACGCGUGCUCCGUUGGAUGGAGUUUAUCAUG [C10G U77C U90A A119G A137G]	≤ -4.2
GGAUCUUCUGGAUCUAACAAAAAAGACAAAUCUGCCACAAAGCUUGAGAGCAUCUUCGGAUGCAGAGGCGGCAGCCUUCGGUGGCACGAUAGCGCCAACGUUCUCAACUAUGACACGCAAAACGCGUGCUCCGUUGAAUGGAGUUUAUCAUG [C10G G86A]	-3.52
GGAUCUUCUGGAUCUAACAAAAAAGACAAAUCUGCCACAAAACUUGAGAGCAUCUUUGGAUGCAGAGGCGGCAGCCUUCGGUGGAGCGAUAGCGCCAACGUUCUCAAUUAUGACACGCAAAACGCGUGCUCCGUUGAAUGGAGUUUAUCAUG [C10G G42A C57U C85A C108U]	≤ -4.2
GGAUCUUCUGGAUCUAACAAAAAAGACAAAUCUGCCACAAAGCUUGAGAGCAUCUUCGGAUGCAUAGGCGGCAGCCUUCGGUGGCGCCAUAGCGCCAACGUUCUUAACUAUGAAACGCAAAACGCGUGCUCCGUUGAAUGGAGUUUAUCAUG [C10G G65U G88C C105U C114A]	≤ -4.2
GGAUCUUCUUGAUCUAGCAAAAAAGUCAAAUCUGCCACAAAGCUUCAGAGCAUCAUCGGAUGCAGAGGCGGCAGCCUUCGGUGGUGCGAUAGCGCCAACGUUCUCUACUAUGACACGCAAAACGCAUGCUCCCUUGAAUGGAGUUUAUCAUG [C10U A17G A26U G46C U55A C85U A106U G126A G133C]	≤ -4.2
GGAUCUUCUGGAUCUAACAAAAAAGACAAAUCUGCCACAAAGCUUGAAAGCAUCUUCGGAUGCAGAGGCGGCAGCCUUCAGUGACGCGAUCGCGCCAACGUUCUCAACUAUGAUACGCAAAACGUGUGCUCCGUUGAAUGGCGUUUAUCAUG [C10G G48A G80A G84A A91C C114U C125U A142C]	≤ -4.2
GGAUCUUCUGGAUCUAACAAAAAAGACAAAUCUGCCACAAAGCUUGAGAGCAUCUUCGGAUGCAGAGGCGGCAGCCUUCGGUGGCGAGAUAGUGCCAACGUUCUCAACUAUGACACGCAAAACGCGUGCUCCGUUGAAUGGAGUUUAUCAUG [C10G C87A C93U]	≤ -4.2
GGAUCUUCUUGAUCUAACUAAAAAGACAAAUCUGUCACAAAGCUUGAGAGCAUCUUCGGAUGCAGAGGCGGCAGCCUUCGGUGGCGCGAUAGCGUCAAUGUUCUCAACUAUGACACGCAAAACGCGUGCUCCGUUGAAUGGAGUUUAUCAUG [C10U A19U C35U C95U C99U]	≤ -4.2
GGAUCUUCUUGAUCUUACAAAAAAGACGAAUCUGCCACAAAGCUUAAGAGCAUCUUCGGAUGCAGAGGCGGCAGCCUUCGGUGGCGCGAUGGAGCCAACGUUCUCAACUAGGACACGCAAAACGCGUGCUCCGUUGAAUGGAGUUUAUCAUU [C10U A16U A28G G46A A91G C93A U111G G152U]	≤ -4.2
GGAUCUUCUUGAUCUUAUAAAAAAGACAAAUCUGCCACAAAGCUUGAGAGCAUCUUCGGAUGCAGAGGCGCCAGCCUUCGGUGGCGCGAUAGCGCCAACGUUCUCAAGUAUGACACGCAAAACGCGUGCUCCGUUGAAUGGAGUUUAUCAUG [C10U A16U C18U G71C C108G]	≤ -4.2
GGAUCUUCUUGAUCUAGCAAAAAAGACCAAUCUGCCACAAAACUUGAGAGCAUCUUCGGAUGCAGAGGCGGCAGCCUUCGGUGGUGCGGUAGUGCCAACGUUCUCAACUAUGACACGCAAAACGCGUGCUCCGUUGAAUGGAGUGUAUCAUG [C10U A17G A28C G42A C85U A89G C93U U145G]	≤ -4.2
GGAUCUUCUGGAUCUAACAAAAAAGACAAAUCUGCCACAAAGCUUGAGAGCAUCUUCGGAUGCAGAGGCGGCAGCCUUCGGUGGCGCGAUAGCGCGAACGUUCUCAACUAUGACACGCAAAACGCGUGCUCCGUUGAAUGGAGUUUAUCAUG [C10G C96G]	-3.62
GGAUCUUCUGGAUCUAACAAAAAAGACAAAUCUGCCACAAAGCUUGAGAGCAUCUUCGGAUGCAGAGGCGGCAGCCUUCGGUGGCGCGAUAGCGCUAACGUUCUCAACUAUGACACGCAAAACGCGUGCUCCGUUGAAUGGAGUUUAUCAUG [C10G C96U]	-2.78
GGAUCUUCUUGAUCUAACUAAAAAGACAAAUGUGCCACAAAGCUUGAGAGCAUCUUCGGAUGCAGAGGCGGCAGCCUUCAGUGGCGCUAUAGCGCCAACGUUCUCAACUAUGACGCGCAAAACGCGUGCUCCGUUGAAUGGAGUUAAUCAUG [C10U A19U C32G G80A G88U A115G U146A]	≤ -4.2
GGAUCUUCUUGUUCUAACAACAAAGACAAAUCUGCCACUAAGCUUGAGAGCAUCUUCGGAUGCAGAGGCGACAGCCUUCGGUGGCGCGAUAGCGCCAACGUUCUCCACUAUGACACGCAAAACGGGUGCUCCGUUGAAUGAAGUUUAUCAUG [C10U A12U A21C A39U G71A A106C C125G G141A]	≤ -4.2
GGAUCUUCUGGAUCUAACAAAAAAGACAAAUCUGCCACAAAGCUUGAGAGCAUCAUAGGAUGCAGAGGCGGCAGCCGUCGGUGGCGGGAUAGCGCCAACGUUCUCAACUAUGACACGCAAAACGCGUGCUCCGUUGAAUGGAGUUUAUCAUG [C10G U55A C57A U77G C87G]	≤ -4.2
GGAUCUUCUGGAUCUAACAAAAAAGACAAAUCUGCCACAAAGCUUGAGAGCAUCUUCGGAUGCAGAGGCGGCAGCCUUCGGUGGCGCUAUAGCGCUAACGUUCUCAACUAUGACACGCAAAACGCGUGCUCGGUUGAAUGGAGUUUAUCAUG [C10G G88U C96U C132G]	≤ -4.2
GGAUCUUCUGGAUCUAACAAAAAAGACAAAUCUGCCACAAAGCUUGAGAGCAUCUUCGGAUGCAGAGGCGGCAGCCUUCGGUGUCGCGAUAGCGCCAACGUUCUCAACUAUGACACGCAAAACGCGUGCUCCGUUGAAUGGAGUUUAUCAUG [C10G G84U]	-3.9
GGAUCUUCUUGAUCUUACAAAAAAGACAAAUCUUCCACGAAGCUUGAGAGCAUCUUCGGAUGCAGAGGCGGCAGCCUUCGGUGGCGCGAUAGCACCAACGUUCUCAACUAUGACACGCAAAACGCGUGCUCCGUUGAAUGCAGUUUAUCAUG [C10U A16U G34U A39G G94A G141C]	-3.56
